Positions count from the first letter of the chain named. Values belong to the binder of their own block, whether it stands above or below them.
Assays:
Aβ(1-40) monomer [1] = target: T1, Aβ(1-40) monomer (human); assay: dot blot, 10 pmol antigen on nitrocellulose, 0.2 µg/ml antibody, densitometry
T1 construct: also called Aβ40; Aβ(1-40) monomer HFIP pretreated
Procedure: (§1) In a second example, described in Example 2.2 below, the oligomer selectivity versus Aβ(1-42) monomer and Aβ(1-40) monomer was examined by dot blot immunoassay.
(§2) Serial dilutions of Aβ(1-42) globulomer, Aβ1-42 monomer and Aβ1-40 monomer were made in the range from 100 pmol/μl-0.01 pmol/μl in PBS. Of each sample, 1 μl was dotted onto a nitrocellulose membrane. […] The detection signal was analyzed in its intensity (reflective density=RD) via a densitometer (GS 800, Biorad, Hercules, Calif., USA) at an antigen concentration of 10 pmol.

Aβ(1-42) globulomer [2] = target: T2, Aβ(1-42) globulomer (human, UniProt P05067 672-713); assay: as above
T2 construct: The definitions give n=12-14 subunits for late assembly forms; no subunit number is stated for the preparation used; also called A-beta (1-42) globulomer; Aβ(1-42) globular oligomer
Procedure: as §1, §2

[3] = target: T3, Aβ1-42 monomer (dot blot) (human); assay: as above
T3 construct: also called Aβ42 monomer
Procedure: as §1, §2

Aβ(1-42) globulomer [4] = target: T2, Aβ(1-42) globulomer; assay: dot blot, reference Aβ(1-42) monomer
Procedure: as §1, §2

Aβ(1-40) monomer [5] = target: T1, Aβ(1-40) monomer; assay: sandwich ELISA, 6G1 capture, antigen titrated, biotinylated 8F5 detection
Procedure: (§3) Two types of experiments were performed. […] This experiment is described in Example 2.1 below.
(§4) Add 10 μl Aβ(1-42) monomer HFIP-pretreated standard stock solution to 44041 PBST+0.5% BSA 10 μg/ml Add 50 μl 10 μg/ml Aβ(1-42) monomer HFIP pretreated standard solution to 495041 PBST+0.5% BSA=100 ng/ml c) Aβ(1-42) monomer in NH4OH Add 5 μl Aβ(1-42) monomer in NH4OH standard stock solution to 995 μl PBST+0.5% BSA=[…] Add 50 μl 10 μg/ml Aβ(1-42) monomer in NH4OH standard solution to 495041 PEST+[…]=100 ng/ml d) Aβ(1-40) monomer HFIP-pretreated Add 1 μl Aβ(1-40) monomer HFIP pretreated standard stock solution to 49 μl PBST+0.5% BSA=430 μg/ml Add 10 μl 430 μg/ml Aβ(1-40) monomer HFIP pretreated standard solution to […] PEST+0.5% BSA=10 μg/ml Add 50 μl 10 μg/ml Aβ(1-40) monomer HFIP pretreated standard solution to 4950 μl PBST+0.5% BSA 100 ng/ml Standard Curves:
(§5) 1. Apply 100 μl anti-Aβ mMAb 6G1 solution per well and incubate overnight at 4° C. 2. Discard the antibody solution and wash the wells with 250 μl PBST-Buffer three times. 3. Add 260 μl block solution per well and incubate 2 h at room temperature. 4. Discard the block solution and wash the wells with 250 μl PBST-Buffer three times. 5. After preparation of standards, apply 100 μl per well of standards to the plate. Incubate 2 h at room temperature and overnight at 4° C. 6. Discard the standard solution and wash the wells with 250 μl PBST-Buffer three times. 7. […] 8. Discard the antibody solution and wash the wells with 250 μl PBST-Buffer three times. 9. Add 200 μl label solution per well and incubate 1 h at room temperature. 10. Discard the label solution and wash the wells with 250 μl PBST-Buffer three times. 11. Add 100 μl of TMB solution to each well and incubate at room temperature (5-15 min). 12.

Aβ(1-42) globulomer [6] = target: T2, Aβ(1-42) globulomer; assay: as above
Procedure: as §3, §4, §5

[7] = target: T4, Aβ(1-42) monomer, HFIP pretreated (human); assay: as above
T4 construct: also called Aβ(1-42) monomer in HFIP; Aβ(1-42) monomer HFIP treated
Procedure: as §3, §4, §5

[8] = target: Aβ(1-42) monomer in NH4OH (human); assay: as above
Procedure: as §3, §4, §5

Aβ(1-40) monomer [9] = target: T1, Aβ(1-40) monomer; assay: sandwich ELISA, EC50 of this antigen divided by EC50 of Aβ(1-42) globulomer
[10] = target: T4, Aβ(1-42) monomer, HFIP pretreated; assay: as above
[11] = target: Aβ(1-42) monomer in NH4OH (human); assay: as above
[12] = target: T5, endogenous Aβ(1-42) in human CSF (human); assay: IP from AD patient CSF, urea-PAGE Western blot, share of Aβ42 in recovered Aβ40+42
T5 construct: Endogenous peptide in cerebrospinal fluid of MCI and AD patients; it was quantified after elution by ELISA or urea-PAGE Western blot; also called Aβ42; Amyloid β(1-42)
Procedure: Immunoprecipitation of Abeta Species from Human AD-CSF: 250 μL aliquot of the prepared CSF sample were added to 25 μL anti-Aβ-Dynabeads suspension. Immunoprecipitation occurred under stirring at 6° C. for 16 hours. Subsequent washing of the beads was performed 3 times 5 min. with 1 mL PBS/0.1% (w/v) BSA and finally once 3 min. with 1 mL 10 mM Tris/HCL pH 7.5 buffer. During the washing procedure, the supernatant was carefully removed while the dynabeads were immobilized at the side of the reaction vial with a magnetic separator stand (MSS). The residual supernatant was thoroughly removed after the final washing step. […] After cooling to room temperature, the dynabeads were immobilized at the side of the reaction vial with a magnetic separator stand (MSS), and the supernatant was transferred to another Eppendorff tube (IP eluate).
15 μL IP eluate aliquots of the immunoprecipitated samples were loaded onto the 8 M Urea PAGE. Electrophoresis was performed at 100 V (15 min) and continued at 60 V. The electrophoresis was stopped when the running front of the blue sample loading dye was still 0.5 cm away from the end of the gel.

Aβ(1-42) globulomer [13] = target: T2, Aβ(1-42) globulomer; assay: sandwich ELISA, reference Aβ(1-42) monomer
Aβ(1-42) globulomer [14] = target: T2, Aβ(1-42) globulomer; assay: dot blot, reference Aβ(1-40) monomer
Procedure: as §1, §2

Aβ(1-40) monomer [15] = target: T1, Aβ(1-40) monomer; assay: dot blot, 10 pmol antigen on nitrocellulose, densitometry
Procedure: as §1, §2

Aβ(1-42) globulomer [16] = target: T2, Aβ(1-42) globulomer; assay: as above
Procedure: as §1, §2

[17] = target: T3, Aβ1-42 monomer (dot blot); assay: as above
Procedure: as §1, §2

T2 sequence (P05067 672-713 limits assumed): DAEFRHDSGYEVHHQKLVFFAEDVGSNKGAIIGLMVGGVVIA
T4 sequence (peptide, as listed by the source): as the sequence (P05067 672-713 limits assumed) above
Aβ(1-42) monomer in NH4OH (human), sequence (peptide, as listed by the source): as the sequence (P05067 672-713 limits assumed) above
T1 sequence (peptide, as listed by the source): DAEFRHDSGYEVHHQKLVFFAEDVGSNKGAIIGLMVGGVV
T5 sequence (peptide, as listed by the source): as the sequence (P05067 672-713 limits assumed) above
T3 sequence (peptide, as listed by the source): as the sequence (P05067 672-713 limits assumed) above

Reflective Density (RD) [10 pmol] (Aβ(1-40) monomer [1]): 0.1 RD
Reflective Density (RD) [10 pmol] (Aβ(1-42) globulomer [2]): 1.6 RD
Reflective Density (RD) [10 pmol] [3]: 1.1 RD
Ratio RD Aβ(1-42) globulomer/RD Aβ(1-42) monomer (Aβ(1-42) globulomer [4]): 1.4
Log EC50 (Aβ(1-40) monomer [5]): 2.83
Log EC50 (Aβ(1-42) globulomer [6]): 1.96
Log EC50 [7]: 2.75
Log EC50 [8]: 3
selectivity factor (EC50 ratio against Aβ(1-42) globulomer) (Aβ(1-40) monomer [9]): 7.4 fold
selectivity factor (EC50 ratio against Aβ(1-42) globulomer) [10]: 6.1 fold
selectivity factor (EC50 ratio against Aβ(1-42) globulomer) [11]: 11.1 fold
Ratio Aβ42/Aβ40+42 × 100% [12]: 8.1%
selectivity for Aβ(1-42) globulomer versus Aβ(1-42) monomer (Aβ(1-42) globulomer [13]): ~10 fold
Ratio RD Aβ(1-42) globulomer/RD Aβ(1-40) monomer (Aβ(1-42) globulomer [14]): 16.9
B1: monoclonal antibody 8F5 (antibody, V domains shown)
VH: EVQLVESGGGLVQPGGSLKLSCAASGFTFSSYGMSWVRQTPDKRLELVASINSNGGSTYYPDSVKGRFTISRDNAKNTLYLQMSSLKSEDTAMYYCASGDYWGQGSTLTVSS
VL: DVVMTQTPLSLPVSLGDQASISCRSSQSLVYSNGDTYLHWYLQKPGQSPKLLIYKVSNRFSGVPDRFSGSGSGTDFTLKISRVEAEDLGVYFCSQSTHVPWTFGGGTKLEIKR
notes: Murine monoclonal antibody from a hybridoma (Balb/c mice immunized with Aβ(1-42) globulomer); Biotinylated with Sulfo-NHS-Biotin for the sandwich ELISA; coupled to Sepharose or Dynabeads for the immunoprecipitations; also called mMAb 8F5; anti-Aβ mouse Mab 8F5

Reflective Density (RD) [10 pmol] (Aβ(1-40) monomer [15]): 0.3 RD
Reflective Density (RD) [10 pmol] (Aβ(1-42) globulomer [16]): 1.3 RD
Reflective Density (RD) [10 pmol] [17]: 0.2 RD
Ratio RD Aβ(1-42) globulomer/RD Aβ(1-42) monomer (Aβ(1-42) globulomer [4]): 5.1
selectivity factor (EC50 ratio against Aβ(1-42) globulomer) (Aβ(1-40) monomer [9]): > 100 fold
selectivity factor (EC50 ratio against Aβ(1-42) globulomer) [10]: 4.1 fold
selectivity factor (EC50 ratio against Aβ(1-42) globulomer) [11]: > 100 fold
Ratio Aβ42/Aβ40+42 × 100% [12]: 14.9%
Ratio RD Aβ(1-42) globulomer/RD Aβ(1-40) monomer (Aβ(1-42) globulomer [14]): 4.1
B2: monoclonal antibody 8C5 (antibody, V domains shown)
VH: B1 VH with A23T, N52K, S53N, V64L, S106T
VL: B1 VL with Y31H, Y37F, V90I, T97I
notes: Murine monoclonal antibody from a hybridoma; Biotinylated for the sandwich ELISA; also called mMab 8C5; 5C5
